PMC4356368, “Four crystal structures of human LLT1, a ligand of human NKR-P1, in varied glycosylation and oligomerization states” (Acta Crystallographica Section D: Biological Crystallography, 2015)

Columns and labels:
[1] = target: LLT1 produced in the HEK293T cell line with wild-type complex N-glycosylation (human); assay: AUC; sedimentation velocity, 50 000 rev/min, 20°C, absorbance 280 nm, 10 mM HEPES pH 7.5, 150 mM NaCl, 10 mM NaN3; several concentrations (HEK293T protein at 0.2 mg/ml and tenfold diluted; GnTI- protein at five concentrations); continuous size-distribution and monomer-dimer self-association models; dimer to monomers
[2] = target: the molecule itself; assay: crystal structure; LLT1_D1 and LLT1_D2: deglycosylated protein, 30%(w/v) PEG 6000, 0.1 M HEPES pH 7.0, 294 K; one dimer in the asymmetric unit, P212121
[3] = target: the molecule itself; assay: dynamic light scattering; 1 mg/ml in 10 mM HEPES, 150 mM NaCl, 10 mM NaN3 pH 7.5; 291, 298 and 303 K
[4] = target: the molecule itself; assay: crystal structure; LLT1_glyco: GlcNAc2Man5-glycosylated protein, 40%(v/v) PEG 300, 0.1 M citrate-phosphate pH 4.2, 288 K; P6322, hexamer of three dimers by crystal symmetry
[5] = target: the molecule itself; assay: AUC; sedimentation velocity, 50 000 rev/min, 20°C, absorbance 280 nm, 10 mM HEPES pH 7.5, 150 mM NaCl, 10 mM NaN3; several concentrations (HEK293T protein at 0.2 mg/ml and tenfold diluted; GnTI- protein at five concentrations); continuous size-distribution and monomer-dimer self-association models; dimer to monomers

## LLT1 produced in the HEK293T cell line with wild-type complex N-glycosylation (domain or fragment)
[1]
  stoichiometry N: 2

B1: Human LLT1 C-type lectin-like extracellular domain (Gln72-Val191, His176Cys), deglycosylated after the first N-acetylglucosamine unit (domain or fragment)
chain: ITGQAACPESWIGFQRKCFYFSDDTKNWTSSQRFCDSQDADLAQVESFQELNFLLRYKGPSDHWIGLSREQGQPWKWINGTEWTRQFPILGAGECAYLNDKGASSARCYTERKWICSKSDIHV
modifications: single N-linked GlcNAc left at Asn95 and Asn147 after Endo F1
notes: remnant of the secretion leader at the beginning of the chain; LLT1 (lectin-like transcript 1), human, UniProt Q9UHP7 isoform 1, CTL extracellular domain Gln72-Val191 with His176 to Cys176; Same polypeptide as m1; it differs only in the glycans; L-arginine-HCl (0.4 M) was added after deglycosylation; also called LLT1_mono; LLT1_D1
[2]
  stoichiometry N: 2

B2: Human LLT1 C-type lectin-like extracellular domain (Gln72-Val191, His176Cys) with homogeneous GlcNAc2Man5 N-glycosylation (domain or fragment)
chain: B1 chain
modifications: N-linked GlcNAc2Man5 glycans at Asn95 and Asn147
notes: remnant of the secretion leader at the beginning of the chain; LLT1 (lectin-like transcript 1), human, UniProt Q9UHP7 isoform 1, CTL extracellular domain Gln72-Val191 with His176 to Cys176; the construct is described in Bláha et al. (2015); also called LLT1_glyco; glycosylated LLT1; source: HEK293S GnTI- cells, transiently transfected, secreted, purified (Talon IMAC, Superdex 200 SEC)
[3]
  stoichiometry N: 2
[4]
  stoichiometry N: 6
[5]
  Kd: ~20 µM
